Laboratory results: patent US20160340422A1 (published 2016)

Legend:
Human IL-17A = Human IL-17A (human, UniProt Q16552 24-155); assay: ELISA
Mouse IL-17A = biological target: T1, Mouse IL-17A (mouse, UniProt Q62386 26-158); assay: ELISA
T1 chain: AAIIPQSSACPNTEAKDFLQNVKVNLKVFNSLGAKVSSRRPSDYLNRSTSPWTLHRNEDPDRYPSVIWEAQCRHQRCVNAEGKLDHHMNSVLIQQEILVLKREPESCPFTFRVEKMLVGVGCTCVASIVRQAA

Human IL-17A, sequence (Q16552 24-155): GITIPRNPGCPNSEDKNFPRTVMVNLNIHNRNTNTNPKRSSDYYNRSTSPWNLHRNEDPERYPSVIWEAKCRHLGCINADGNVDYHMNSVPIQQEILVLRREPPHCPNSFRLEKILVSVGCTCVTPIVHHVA

EC50 (Human IL-17A): 88 pM | EC50 (Mouse IL-17A): 88 pM
B1: Control antibody A (antibody, V domains shown)
VH: QVQLKESGPGLVQPSQTLSLTCTVSGFSLTNYYVHWVRQPPGKGLEWMGGVWNDGDTSYNSVLRSRLSITRDTSKSQVLLKMSSLQTEDTATYYCAREGREGFVGYYVMDAWGPGASVTVSS
VL: DIQMTQSPSFLSASVGERVTLSCKASQNINKYLDWFQQKLGEAPKLLIYNADNLHTGIPSRFSGSGSFSDFILTISSLQPEDDATYFCLQRESWPYTFGAGTKLELKR
